B1: wtERE competitor (free) (dsDNA)
DNA 1: GTCCAAAGTCAGGTCACAGTGACCTGATCAAAGT
DNA 2: ACTTTGATCAGGTCACTGTGACCTGACTTTGGAC
B2: scrDNA competitor (free) (dsDNA)
DNA 1: GTCCAAAGTCAATCGCCAGCACGATGATCAAAGT
DNA 2: ACTTTGATCATCGTGCTGGCGATTGACTTTGGAC

What was measured:
[1] = molecular target: T1, Estrogen receptor beta (ERβ) (UniProt Q92731 Q92731:1-530); experiment: competition; free competitor at 4:1 over ERβ, 360 nM ERβ, 56 mM KCl, 5 min; strong competitor; settings: chain copies: 2
Protocol: (§1) In this study, excess unmodified DNA competitor (i.e., wtERE and scrDNA, are used as strong and weak competitors, respectively) was pre-incubated with the ERβ at room temperature for 20 minutes to allow for complex formation (molar ratio of ERβ:dsDNA is 1:4), followed by the addition to the complementary mixture of v1-v2-AuNPs in 56 mM KCl, with final ERβ concentration of 360 nM. In the presence of strong competitor (wtERE), limited amount of ERβ bound to the ERE anchored on the AuNPs surface, leading to extensive particle aggregation in salt solution. […]
(§2) The aggregation state of the AuNPs was quantified using UV-Vis absorption spectrum as indicated by the shift of LSPR peak at 526 nm wavelength to a longer wavelength (e.g. 650 nm). The UV-Vis absorbance ratio at 650 nm to that at 526 nm, i.e., A650/A526 is indicative of the particle aggregation degree where a higher ratio is directly related to a larger extent of aggregation. In this study, the deviation percentage (i.e., [(X−Y)/Y]*100%) was calculated based on the difference in aggregation ratio of AuNP samples (measure as A650/A526) with competitors (denoted as X) relative to that without competitor (denoted as Y) at 5 minutes after mixing in the 56 mM KCl-containing protein binding buffer. A 9.0% of deviation was recorded for the scrambled DNA sequence (scrDNA). […]

[2] = molecular target: T1, Estrogen receptor beta (ERβ); experiment: competition; free competitor at 4:1 over ERβ, 360 nM ERβ, 56 mM KCl, 5 min; attributed to non-specific binding; settings: chain copies: 2
Protocol: as §1, §2

T1 sequence (Q92731 whole entry, one chain of several): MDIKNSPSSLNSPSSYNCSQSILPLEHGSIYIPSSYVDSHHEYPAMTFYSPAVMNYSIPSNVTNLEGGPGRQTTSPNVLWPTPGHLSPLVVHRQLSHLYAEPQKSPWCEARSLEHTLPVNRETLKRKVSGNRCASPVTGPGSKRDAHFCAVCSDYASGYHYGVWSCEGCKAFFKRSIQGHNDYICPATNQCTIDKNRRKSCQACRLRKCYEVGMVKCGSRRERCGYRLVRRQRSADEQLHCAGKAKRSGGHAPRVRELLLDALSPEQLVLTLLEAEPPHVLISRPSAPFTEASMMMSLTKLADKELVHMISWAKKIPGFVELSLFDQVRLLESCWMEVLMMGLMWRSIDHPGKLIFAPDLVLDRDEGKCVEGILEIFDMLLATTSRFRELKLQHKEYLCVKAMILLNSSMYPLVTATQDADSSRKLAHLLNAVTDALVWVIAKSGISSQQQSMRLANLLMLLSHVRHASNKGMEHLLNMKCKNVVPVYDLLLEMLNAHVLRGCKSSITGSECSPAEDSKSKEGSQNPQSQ

Binder	binding signal [1]	binding signal [2]
B1	35 % deviation of aggregation ratio	
B2		9 % deviation of aggregation ratio
